Results on one substance are retold here after patent US20240400677A1.

For experiment [1], the target named is human SIRPγ on primary human T-cells (human) (UniProt Q9P1W8). The experiment can be described thus: flow cytometry, naive resting human CD4+ T cells.
The target is the same in experiment [2]. The experiment can be described thus: flow cytometry, anti-CD3/CD28-stimulated human CD8+ T cells.
Experiment [3] shares this target. Description: flow cytometry, naive resting human CD3+ T cells.
Experiment [4] shares this target. The experiment can be described thus: flow cytometry, naive resting human CD8+ T cells.
The target is the same in experiment [5]. The experiment can be described thus: flow cytometry, anti-CD3/CD28-stimulated human CD4+ T cells.
For experiment [6] the target is unchanged. The experiment can be described thus: flow cytometry, anti-CD3/CD28-stimulated human CD3+ T cells.

Sequence of human SIRPγ on primary human T-cells (human) (Q9P1W8 29-387 limits assumed): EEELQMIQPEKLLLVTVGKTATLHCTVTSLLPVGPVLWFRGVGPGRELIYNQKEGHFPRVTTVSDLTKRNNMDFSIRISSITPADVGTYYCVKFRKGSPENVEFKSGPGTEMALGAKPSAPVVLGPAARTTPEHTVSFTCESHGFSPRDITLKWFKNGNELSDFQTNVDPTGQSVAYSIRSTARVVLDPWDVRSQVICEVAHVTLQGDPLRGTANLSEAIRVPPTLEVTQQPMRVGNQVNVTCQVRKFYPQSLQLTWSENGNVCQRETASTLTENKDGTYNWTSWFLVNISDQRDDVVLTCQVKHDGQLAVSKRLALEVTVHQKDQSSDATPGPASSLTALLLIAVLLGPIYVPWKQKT

On to “mouse monoclonal antibody against human SIRPγ, clone OX-119 (ThermoFisher Scientific MA5-28215)”, for which the EC50 (read off the curve) amounted to 0.04 µg/mL in experiment [1]; 0.1 µg/mL in experiment [2]; 0.2 µg/mL in experiment [3]; 0.09 µg/mL in experiment [4]; 0.05 µg/mL in experiment [5]; 0.4 µg/mL in experiment [6].
